Tests used:
Assay in all cases: pull-down binding Z-score (relative to library population); higher = stronger binding
Conditions in all cases: RNA library: Library-2
[1] = system: TO-3-N3-2 (biotin conjugate)
How it was run: (§1)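 The RNA library, end-labelled with Cy5 or Cy3, was heat-folded in phosphate/NaCl/KCl buffer, and 1 μg was incubated at 25 °C for 60 min with streptavidin beads carrying 100 pmol of biotin-conjugated small molecule. Hot SDS released the bound RNA, which was then hybridised to a DNA barcode microarray for 20 h at 55.5 °C. For scoring binding, signal from beads alone was subtracted, replicate barcoded probes were averaged after discarding the highest and lowest, and each value was turned into a Z-score from the library mean and standard deviation.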

[2] = system: TO-N3-2 (biotin conjugate)
How it was run: as §1

[3] = system: TO-3-N3 (biotin conjugate)
How it was run: as §1

[4] = system: TO-N3 (biotin conjugate)
How it was run: as §1

Sequence	pull-down binding Z-score [1]	pull-down binding Z-score [2]	pull-down binding Z-score [3]	pull-down binding Z-score [4]
CCUUAUAAUUCACAGAAUGCUGUAGCCUCAAAGAUUUUGGGACUACCAACUCAAACUGUUGAUUCAUCACAGG [DMSMaPseq_invitro_SARS-CoV-2_Motif_319]	-0.324	0.0157	-0.541	-0.341
UUACAGAAGAGGUUGGCCACACAGAUCUAAUGGCUGCUUAUGUAG	-0.244	-0.138	-0.523	-0.376
CUCCAAAAAGAG	-0.675	-1.2	-0.901	-1.21
CUUCUUGCAUGUGACUUAUGUCCCUGCACAAGAAAAG [SHAPE_invitro_SARS-CoV-2_Motif_449]	-0.257	-0.177	-0.329	-0.309
CUGGCAGUAACCAG [SHAPE_invivo_SARS-CoV-2_Motif_538]	-0.422	-0.733	-0.215	-0.233
GGACUUGAAAGAGCC	-0.442	-0.676	-0.384	-0.45
GAAAUACUUGUCACAUACAAUUGUUGUGAUGAUGAUUAUUUC	-0.399	-1.14	-1.15	-1.39
AAAUUUACAAGAAUUU [SHAPE_invivo_SARS-CoV-2_Motif_380]	-0.556	-1.48	-0.131	-0.556
GUGAAACAUUUGUCAC [SHAPE_invivo_SARS-CoV-2_Motif_46]	0.013	-0.394	0.818	0.532
AGGUUGGUAUGCAAAAGUAUUCUACACUCCAGGGACCACCUGGUACUGGUAAGAGUCAUUUUGCUAUUGGCCU	-0.203	0.696	-0.654	-0.418
UGGCAUUAAUGCUUCAGUUGUAAACAUUCAAAAAGAAAUUGACCGCCUCAAUGAGGUUGCCA	-0.207	-0.663	-0.964	-1.1
CAUGCAAAUUACAUAUUUUGGAGGAAUACAAAUCCAAUUCAGUUGUCUUCCUAUUCUUUAUUUGACAUG	-0.152	-0.803	-0.857	-1.08
UCAGUUGUAAACAUUCAAAAAGAAAUUGA	0.407	0.216	0.0975	0.0554
GUUUCUGCCUUUCCAACAAUUUGGCAGAGAC	-0.306	-0.994	-0.615	-0.868
CUUUAUUAGAAG [DMSMaPseq_invitro_SARS-CoV-2_Motif_195]	-0.21	-0.806	-0.165	-0.39
GCUGGUGCACUUGCCAGU [IAV_invivo_M1_M2_7_Motif_8+IAV_invivo_M1_M2_7_Motif_8]	-0.545	-0.0123	-0.522	-0.408
ACAUCAGCUUGUGUUUUGGCUGCUGAAUGU	-0.534	-0.485	-0.623	-0.774
GGCGUAAGUCUGAUACUUACCUG [U1snRNP5ss-10]	0.0886	1.08	0.212	0.668
ACAAGGCUAUUGAUGGUGGUGUCACUCGUGACAUAGCAUCUACAGAUACUUGU [SHAPE_invitro_SARS-CoV-2_Motif_170]	-0.287	-0.052	-0.355	-0.449
UACCUUUUGCUAUGGGUA	-0.454	-1.26	-0.317	-0.582
GACUUAUGAAAACUAUAGGUC	0.00298	-0.341	-0.388	-0.299
UGGGUUGGGUUGGGUUGGGUUGGGUUGGGUUGGGUUGGGU [G4_r(UGGGU)8]	10.4	5.96	8.92	7.56
GGCCCGAGUGAUGGGCU [IAV_invivo_NA_6_Motif_9+IAV_invivo_NA_6_Motif_9]	-0.29	0.201	-0.127	-0.27
AUCAAGACUAUUCAACCAAGGGUUGAAAAGAAAAAGCUUGAU	-0.241	-1.25	-0.561	-0.904

Sequence	pull-down binding Z-score [1]	pull-down binding Z-score [2]	pull-down binding Z-score [3]	pull-down binding Z-score [4]
GCUGUGAGUUGGAUACUUACCUG [U1snRNP5ss-13]	0.194	1.38	0.0032	0.947
GAGGCUAUGUACACACCGCAUACAGUCUUACAGGCUGUUGGGGCUUGUGUUCUUUGCAAUUC [SHAPE_invitro_SARS-CoV-2_Motif_296]	-0.158	0.485	-0.256	0.112
CAGUACAAUUCUGUGAUGCCAUGCGAAAUGCUGGUAUUGUUGGUGUACUG	-0.441	-0.171	-0.432	-0.499
GUGUUAUAACAC	-0.531	-1.12	-0.176	-0.404
CAUGUUUAUCACCCGCGAAGAAGCUAUAAGACAUGUACGUGCAUGGAUUGGCUUCGAUGUCGAGGGGUGUCAUG [DMSMaPseq_invitro_SARS-CoV-2_Motif_326]	-0.363	-0.0649	-0.699	-0.771
AAUGUUUUAUUCUCUACAGUGUUCCCACUUACAAGUUUUGGACCACUAGUGAGAAAAAUAUU [DMSMaPseq_invitro_SARS-CoV-2_Motif_260]	-0.434	-0.866	-0.786	-0.882
AAGCUGAUGAGUACGAACUUAUGUACUCAUUCGUUU	-0.284	-0.895	-0.634	-0.877
CAGAGUACUCAAUGGUCUUUG	-0.543	-0.606	-0.33	-0.395
GUUUGUGUAUCUACUAGUGGUAGAUGGGUACUUAAC	-0.279	-1.05	-0.677	-0.726
GAGGUGAUGCAGAUACUUACCUG [U1snRNP5ss-20]	0.169	0.343	0.762	0.68
UGCUCAAGAAGCUUAUGAGCA [SHAPE_invivo_SARS-CoV-2_Motif_229]	0.0729	0.0417	-0.554	-0.253
UCGCUUGCAAGUUGGAUUCAGAAUGAGUUUAACAAGGCAUGCGA [IAV_invivo_PA_3_Motif_18+IAV_invivo_PA_3_Motif_18]	-0.227	-0.838	-0.53	-0.603
UACCAUUUAAUGAUGGUG	-0.21	-1.03	0.115	-0.0588
AGUUGUGAUCAACU	-0.728	-1.24	-0.744	-1.06
GGGCAAGCUGUCUCAAAUGUCC [IAV_invivo_PA_3_Motif_10+IAV_invivo_PA_3_Motif_10]	-0.226	0.0264	-0.508	-0.543
CUAACAAUCUAGUUGUAAUGGCCUACAUUACAGGUGGUGUUGUUCAG [SHAPE_invivo_SARS-CoV-2_Motif_39]	-0.607	-0.761	-0.352	-0.379
GGCAGUUUGUAUGUAAAUAAACAUGCAUUCC [SHAPE_invivo_SARS-CoV-2_Motif_362]	-0.171	-0.727	0.0152	-0.216
GACUCUGAGCCAGUGCUCAAAGGAGUC	-0.434	-0.0814	-0.523	-0.677
GAUGGUCAAGUAGACUUAUUUAGAAAUGCCCGUAAUGGUGUUCUUAUUACAGAAGGUAGUGUUAAAGGUUUACAACCAUC	-0.245	-0.181	-0.346	-0.421
CUUGAUGAUUUUGUUGAAAUAAUAAAAUCCCAAG	-0.266	-0.743	-0.466	-0.636
GUGAAUUCAACAU [DMSMaPseq_invitro_SARS-CoV-2_Motif_308]	-0.213	-0.524	-0.238	-0.428
UCACACUAAAAAGUGGA	-0.477	-1.15	-0.691	-1.1
GUGGAUGGUUAUGUUCAC	-0.266	-0.628	0.0943	-0.236
GAAGGUCUUAAUGACAACCUUC [SHAPE_invitro_SARS-CoV-2_Motif_33]	-0.502	-1.39	-0.78	-1.28

Sequence	pull-down binding Z-score [1]	pull-down binding Z-score [2]	pull-down binding Z-score [3]	pull-down binding Z-score [4]
UGGUUUUGCUAAAUUCCUAAAAACUA [DMSMaPseq_invitro_SARS-CoV-2_Motif_244]	-0.0765	-0.866	-0.45	-0.632
GCCACUUGCGAAUUUUGUGGC	-0.0945	-0.997	0.0442	-0.312
GCUCUCUGAUGC [IAV_invivo_NP_5_Motif_10+IAV_invivo_NP_5_Motif_10]	-0.589	-0.464	-0.607	-0.672
UGCCUUCAAACUCAACAUUAAAUUGUUGGGUGUUGGUGGCA	-0.352	-1.07	-0.701	-0.909
UAGUCCUGUUGCACUACGACAGAUGUCUUGUGCUGCCGGUACUA [DMSMaPseq_invitro_SARS-CoV-2_Motif_226]	-0.381	-0.478	-0.727	-0.821
GGCCAUUAGAGGCC [IAV_invivo_PB2_1_Motif_29+IAV_invivo_PB2_1_Motif_29]	-0.69	-1.06	0.0791	-0.257
AAGGAUGCUACUCCUU	-0.789	-1.36	-0.922	-1.32
ACCAUUCUUCGUAAGGGUGGU	-0.207	-0.847	-0.172	-0.223
UGGAUGUAAUUAUCUUGGCAAACCACGCGAACAAAUAGAUGGUUAUGUCAUGCAUGCA	-0.0277	0.157	-0.833	-0.682
GUACCUCAAGCUGAUGUAGAAUGGAAGUUCUAUGAUGCACAGCCUUGUAGUGAC [SHAPE_invitro_SARS-CoV-2_Motif_348]	-0.203	0.735	-0.418	-0.178
GCAAAUUGCACAAUUUGC	0.661	-0.158	0.165	0.0548
GCUGACACUACUGAUGCUGUCCGUGAUCCACAGACACUUGAGAUUCUUGACAUUACACCAUGUUCUUUUGGUGGUGUCAGU [SHAPE_invivo_SARS-CoV-2_Multi_58_ComplexLevel_1]	-0.3	0.237	-0.0653	0.456
AAACUUGUGCCCUUUUGGUGAAGUUUUUAACGCCACCAGAUUUGCAUCUGUUU [SHAPE_invivo_SARS-CoV-2_Motif_425]	-0.449	-0.751	-1.12	-1.3
UUACACCACUGGGCAUUGAUUUAGAUGAGUGGAGUAUGGCUACAUACUACUUAUUUGAUGAGUCUGGUGAGUUUAA	-0.516	-1.04	-0.972	-1.09
UCCUAAAGUGAAGUAUUUAUACUUUAUUAAAGGA [SHAPE_invitro_SARS-CoV-2_Motif_235]	-0.48	-1.61	-1.14	-1.44
CCUGGUCAUGCAGAUCUCAGUGCCAAGGAGGCACAGGAUGUAAUCAUGGAAGUUGUUUUCCCUAACGAAGUGGGAGCCAGG	-0.23	0.44	-0.749	-0.414
CUUUGAUAAAGCUGGUCAAAAGACUUAUGAAAG	-0.4	-0.816	-0.814	-0.947
UAGAGUGCUAUCUA [SHAPE_invitro_SARS-CoV-2_Motif_352]	-0.553	-0.86	-0.809	-0.957
GUAGAGGAGGCAAAGACAGUGCUUAAAAAGUGUAAAAGUGCCUUUUAC	0.448	0.576	-0.449	-0.193
ACCAAUGUGCUAUGAGGCCCAAUUUCACUAUUAAGGGUUCAUUCCUUAAUGGUUCAUGUGGUAGUGUUGGU [SHAPE_invivo_SARS-CoV-2_Multi_27_ComplexLevel_1]	-0.186	-0.569	-0.261	-0.295
AAUAACUUACCUUUUAAGUUGACAUGUGCAACUACUAGACAAGUUGUU	-0.415	-1.52	-0.907	-1.21
UGUAAGCACAAGCUGAUGAGUACGAACUUAUGUACUCAUUCGUUUCGGAAGAGACAGGUACGUUAAUAGUUAAUAGCGUACUUCUUUUUCUUGCUUUCG [DMSMaPseq_invitro_SARS-CoV-2_Multi_80_ComplexLevel_1]	-0.529	-0.373	-1.03	-0.883
AACCAUACAGGUGUUGUUGGAGAAGGUU [DMSMaPseq_invitro_SARS-CoV-2_Motif_31]	0.125	-0.444	0.0755	-0.0691

Source: the supplement of paper PMC11865577
